Results on three substances are retold here after US20250236682A1.

Test [1] has as its target human FcγRI (R&D systems, 1257-FC) (human) (UniProt P12314). Nature of the test: BLI, His-FcγRI on HIS1K sensor. (In general: Biolayer interferometry detects binding as a change in optical thickness at a sensor tip.)
The target in test [2] is human FcγIIA (R&D systems, 1330-CD) (human) (UniProt P12318). The experiment in a line: BLI, His-FcγRIIA on HIS1K sensor.
Test [3] deals with HER2 on human cancer cell lines (NCI-N87, BT474, SK-OV-3, SNU-1, SNU-5, SNU-601) (human) (UniProt P04626). The experiment in a line: flow cytometry Fc load, SNU5 cells.
The target is the same in test [4]. The experiment in a line: flow cytometry Fc load, SNU601 cells. (In general: In flow cytometry, cells or beads pass a laser one at a time.)
In test [5] the target is human HER2 on CT26-HER2 cell line (Clone #2-60) (human) (UniProt P04626). The experiment in a line: flow cytometry Fc load, CT26-HER2 (#2-60) cells.
In test [6] the target is HER2 on human cancer cell lines (NCI-N87, BT474, SK-OV-3, SNU-1, SNU-5, SNU-601) (human) (UniProt P04626). The experiment in a line: flow cytometry Fc load, BT474 cells.
The target is the same in test [7]. The experiment in a line: flow cytometry Fc load, SNU-1 cells.
The target is the same in test [8]. Nature of the test: flow cytometry Fc load, SNU-5 cells.
Test [9] has the same target. The experiment in a line: flow cytometry Fc load, NCI-N87 cells.
For test [10] the target is unchanged. The experiment in a line: flow cytometry Fc load, SK-OV-3 cells.
Test [11] has as its target human HER2 recombinant protein (R&D systems, 1129-ER) (human) (UniProt P04626). The experiment in a line: BLI sequential binding on HER2-loaded sensor.

Chain of human FcγIIA (R&D systems, 1330-CD) (human) (P12318 36-218 H167R): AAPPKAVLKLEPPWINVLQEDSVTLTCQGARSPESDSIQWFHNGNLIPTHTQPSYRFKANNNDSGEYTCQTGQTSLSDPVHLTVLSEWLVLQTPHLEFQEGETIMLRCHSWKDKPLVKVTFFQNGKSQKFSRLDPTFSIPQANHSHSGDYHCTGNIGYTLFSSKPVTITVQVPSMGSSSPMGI
Chain of human FcγRI (R&D systems, 1257-FC) (human) (P12314 16-288 limits assumed): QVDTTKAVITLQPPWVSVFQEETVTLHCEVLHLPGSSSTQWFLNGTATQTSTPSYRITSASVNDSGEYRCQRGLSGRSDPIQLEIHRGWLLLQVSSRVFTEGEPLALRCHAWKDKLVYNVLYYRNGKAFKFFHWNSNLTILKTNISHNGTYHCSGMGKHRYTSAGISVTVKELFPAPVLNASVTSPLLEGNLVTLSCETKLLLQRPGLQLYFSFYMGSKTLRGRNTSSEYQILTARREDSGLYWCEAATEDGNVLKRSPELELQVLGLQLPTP

As for “human IgG1 (Bio X cell, BE0297) (antibody)”, the Kd is 2.46 nM in [1] and 310 nM in test [2]. Also, the figures for the GMFI in [3], in [4] and in test [5] were 101, 173 and 150, respectively.

As for trastuzumab + pertuzumab (combination), the GMFI in test [6] is 38700; in [7], 2690; in test [8], 1390; in [9], 137000; in [10], 6450. In addition, in test [11], the binding signal (nm shift, value at 4140 s minus value at 1260 s) stood at 0.923 nm.

As to pertuzumab (antibody), the dissociation constant Kd in test [2] stood at 359 nM.

What is called Kd is a measure of binding affinity in units of concentration. Read a high Kd as a looser complex.
